The numbers were not newly measured in patent US7109015B2, “Removal of N-terminal methionine from proteins by engineered methionine aminopeptidase” (Academia Sinica, priority 2004, dated 2006), which cites them from elsewhere.

For the series the following is noted: E. coli MetAP mutations; Chiu et al. 1999; cited from earlier work.

B1: Y62F: E. coli MetAP mutation in the putative substrate-binding pocket (protein, UniProt P0AE18 2-264, looked up, variant Y62F)
Methionine aminopeptidase: AISIKTPEDIEKMRVAGRLAAEVLEMIEPYVKPGVSTGELDRICNDYIVNEQHAVSACLGFHGYPKSVCISINEVVCHGIPDDAKLLKDGDIVNIDVTVIKDGFHGDTSKMFIVGKPTIMGERLCRITQESLYLALRMVKPGINLREIGAAIQKFVEAEGFSVVREYCGHGIGRGFHEEPQVLHYDSRETNVVLKPGMTFTIEPMVNAGKKEIRTMKDGWTVKTKDRSLSAQYEHTIVVTDNGCEILTLRKDDTIPAIISHDE
For the molecule B1, the “Catalytic activity, % activity of the wild type” value (shortened to “Catalytic activity, % activity”) is reported as “do not reduce catalytic activity”.

B2: F177L: E. coli MetAP mutation in the putative substrate-binding pocket (protein, UniProt P0AE18 2-264, looked up, variant F177L)
Methionine aminopeptidase: AISIKTPEDIEKMRVAGRLAAEVLEMIEPYVKPGVSTGELDRICNDYIVNEQHAVSACLGYHGYPKSVCISINEVVCHGIPDDAKLLKDGDIVNIDVTVIKDGFHGDTSKMFIVGKPTIMGERLCRITQESLYLALRMVKPGINLREIGAAIQKFVEAEGFSVVREYCGHGIGRGLHEEPQVLHYDSRETNVVLKPGMTFTIEPMVNAGKKEIRTMKDGWTVKTKDRSLSAQYEHTIVVTDNGCEILTLRKDDTIPAIISHDE
Turning to B2, the “Catalytic activity, % activity” value is on record as “do not reduce catalytic activity”.

B3: Y65F: E. coli MetAP mutation in the putative substrate-binding pocket (protein, UniProt P0AE18 2-264, looked up, variant Y65F)
Methionine aminopeptidase: AISIKTPEDIEKMRVAGRLAAEVLEMIEPYVKPGVSTGELDRICNDYIVNEQHAVSACLGYHGFPKSVCISINEVVCHGIPDDAKLLKDGDIVNIDVTVIKDGFHGDTSKMFIVGKPTIMGERLCRITQESLYLALRMVKPGINLREIGAAIQKFVEAEGFSVVREYCGHGIGRGFHEEPQVLHYDSRETNVVLKPGMTFTIEPMVNAGKKEIRTMKDGWTVKTKDRSLSAQYEHTIVVTDNGCEILTLRKDDTIPAIISHDE
Regarding B3, the “Catalytic activity, % activity” value is reported as “do not reduce catalytic activity”.

B4: W221L: E. coli MetAP mutation in the putative substrate-binding pocket (protein, UniProt P0AE18 2-264, looked up, variant W221L)
Methionine aminopeptidase: AISIKTPEDIEKMRVAGRLAAEVLEMIEPYVKPGVSTGELDRICNDYIVNEQHAVSACLGYHGYPKSVCISINEVVCHGIPDDAKLLKDGDIVNIDVTVIKDGFHGDTSKMFIVGKPTIMGERLCRITQESLYLALRMVKPGINLREIGAAIQKFVEAEGFSVVREYCGHGIGRGFHEEPQVLHYDSRETNVVLKPGMTFTIEPMVNAGKKEIRTMKDGLTVKTKDRSLSAQYEHTIVVTDNGCEILTLRKDDTIPAIISHDE
Turning to B4, the “Catalytic activity, % activity” value was 27%.

B5: C70S: E. coli MetAP mutation in the putative substrate-binding pocket (protein, UniProt P0AE18 2-264, looked up, variant C70S)
Methionine aminopeptidase: AISIKTPEDIEKMRVAGRLAAEVLEMIEPYVKPGVSTGELDRICNDYIVNEQHAVSACLGYHGYPKSVSISINEVVCHGIPDDAKLLKDGDIVNIDVTVIKDGFHGDTSKMFIVGKPTIMGERLCRITQESLYLALRMVKPGINLREIGAAIQKFVEAEGFSVVREYCGHGIGRGFHEEPQVLHYDSRETNVVLKPGMTFTIEPMVNAGKKEIRTMKDGWTVKTKDRSLSAQYEHTIVVTDNGCEILTLRKDDTIPAIISHDE
Regarding B5, the “Catalytic activity, % activity” value is 54%.
